Legend:
[1] = Kinetic constants of the Drosophila kinase compared to known analogous enzymes; assay type: biochemical; conditions: versus hitherto known kinases, Kc values
Text: Furthermore, […]; as a consequence, for the synthesis of the individual nucleosides it is no more necessary to have the corresponding specific kinase. Particularly advantageous is the low specificity for the synthesis of modified nucleoside analogues, such as dideoxynucleosides or base- or sugar-modified nucleosides. Base-modified nucleosides are for example 7-deaza-nucleosides, C-nucleosides and nucleotides labelled with reporter groups (dye, digoxigenin, biotin) at the base. Sugar-modified nucleosides are for example azathymidine, arabinosyl-thymidine. The specific activity kc of the kinase according to the invention is several times higher than that of the kinases known before. The activity of the enzyme was measured as described in the reference: Munch-Peterson et al. (1991) J. Biol. Chem. 266, 9032-9038. By this, a considerably lower amount of enzyme is necessary to synthesize the dNMPs. (factor 3.5-14000, cf. Kc values in table 1). The specificity constant (kc/KM) of the kinase according to the invention exceeds that of the hitherto known kinases by several powers and is in the region of the diffusion constant. This leads to the complete yield when the kinase is added to the d-NMP synthesis. They are higher by factor 2-6500 than the hitherto known kinases, s. FIG. 1. […]

[2] = Activity of the kinase from D. Melanogaster at different temperatures; assay type: biochemical; conditions: wide optimum
Experimental: The activity of the Dm-nucleoside kinase was determined at different temperatures. […] (see FIG. 6).
The activity test is described in reference No. 14.

[3] = Stability: remaining activity of recombinant versus native Dm-kinase after incubation at 37° C.; assay type: physicochemical
Experimental: The activity of the recombinant Dm-kinase compared to native, isolated Dm-kinase was determined. After different periods of incubation in 50 mM Tris 7.5+2.5 mM MgCl2 at 37° C. the remaining activity was determined.

Molecule | factor by which specific activity kc exceeds known kinases (lower amount of enzyme necessary) [1] | temperature of maximum activity [2] | stability (remaining activity) ([3]; 50 mM Tris 7.5+2.5 mM MgCl2, 37° C., without addition of BSA) | half-life ([3]; Tris buffer in the presence of MgCl2, 37° C.) | half-life ([3]; Tris buffer without MgCl2, 37° C.) | half-life ([3]; pure water) | stability (remaining activity) ([3]; 50 mM Tris 7.5+2.5 mM MgCl2, 37° C., with 2.5 mg/ml BSA) | half-life ([3]; under the same conditions) | remaining activity ([3]; within 50 min, 50 mM Tris 7.5+2.5 mM MgCl2, 37° C., without BSA)
recombinant Dm-kinase: recombinant multifunctional deoxynucleoside kinase from Drosophila Melanogaster, expressed in E. coli (protein, UniProt Q9XZT6 1-250, looked up) Deoxynucleoside kinase: MAEAASCARKGTKYAEGTQPFTVLIEGNIGSGKTTYLNHFEKYKNDICLLTEPVEKWRNVNGVNLLELMYKDPKKWAMPFQSYVTLTMLQSHTAPTNKKLKIMERSIFSARYCFVENMRRNGSLEQGMYNTLEEWYKFIEESIHVQADLIIYLRTSPEVAYERIRQRARSEESCVPLKYLQELHELHEDWLIHQRRPQSCKVLVLDADLNLENIGTEYQRSESSIFDAISSNQQPSPVLVSPSKRQRVAR | 3.5-14000 | 60 °C | remains stable | 50 h | 31 h | 28 h | – | – | –
native Dm-kinase: native, isolated deoxynucleoside kinase from Drosophila Melanogaster, used for comparison (protein, UniProt Q9XZT6 1-250, looked up) Deoxynucleoside kinase: MAEAASCARKGTKYAEGTQPFTVLIEGNIGSGKTTYLNHFEKYKNDICLLTEPVEKWRNVNGVNLLELMYKDPKKWAMPFQSYVTLTMLQSHTAPTNKKLKIMERSIFSARYCFVENMRRNGSLEQGMYNTLEEWYKFIEESIHVQADLIIYLRTSPEVAYERIRQRARSEESCVPLKYLQELHELHEDWLIHQRRPQSCKVLVLDADLNLENIGTEYQRSESSIFDAISSNQQPSPVLVSPSKRQRVAR | – | – | – | – | – | – | remains stable | < 0.2 h | < 20%

From patent publication US7625735B2, “Recombinant kinase from insect cells for the synthesis of nucleoside monophosphates” (Roche Diagnostic Operations, Inc., priority 1998, dated 2009)
